The target in assay [1] is RSV A Randall fusion glycoprotein (F) (RSV A, strain Randall). The assay can be described thus: cell-based or functional assay.
Assay [2] addresses RSV B 9719/09 fusion glycoprotein (F) (RSV B, strain 9719/09). Nature of the assay: cell-based or functional assay.
The target of assay [3] is RSV A2 BPR-344-00 (BEI NR-12149) fusion glycoprotein (F) (RSV A, strain A2, UniProt P03420 26-574). Nature of the assay: cell-based or functional assay.
Assay [4] deals with RSV B1 BPR-348-00 (BEI NR-4052) fusion glycoprotein (F) (RSV B, strain B1, UniProt O36634 26-574). Nature of the assay: cell-based or functional assay.
The target of assay [5] is RSV A2 (screening GFP strain) fusion glycoprotein (F) (RSV A). The assay can be described thus: cell-based or functional assay.
The target of assay [6] is RSV B (screening GFP strain) fusion glycoprotein (F) (RSV B). Nature of the assay: cell-based or functional assay.
Assay [7] addresses RSV A 2001/3-12 fusion glycoprotein (F) (RSV A, strain A 2001/3-12). Nature of the assay: cell-based or functional assay.
Assay [8] addresses RSV A1997/12-35 fusion glycoprotein (F) (RSV A, strain A1997/12-35). The assay can be described thus: cell-based or functional assay.
The target of assay [9] is RSV A1998/3-2 fusion glycoprotein (F) (RSV A, strain A1998/3-2). The assay can be described thus: cell-based or functional assay.
Assay [10] has as its target RSV A2 VR 1540 fusion glycoprotein (F) (RSV A, strain A2 (VR 1540), UniProt P03420 26-574). The assay can be described thus: cell-based or functional assay.
The target of assay [11] is RSV A 2000/3-4 fusion glycoprotein (F) (RSV A, strain A 2000/3-4). The assay can be described thus: cell-based or functional assay.
In assay [12] the target is RSV Ds Red 5 fusion glycoprotein (F) (RSV, strain printed as Ds Red 5). Nature of the assay: cell-based or functional assay.
In a further assay the target is T1, RSV-B F (RSV B).
T1 construct: also called RSV F B
Nature of the assay: affinity; method not given.

The next assay addresses T2, RSV-A F (RSV A).
T2 construct: also called RSV F A
Nature of the assay: affinity; method not given.

In assay [13] the target is T3, RSV fusion glycoprotein (RSV-F), pre-fusion conformation, recombinant protein loaded on sensors (respiratory syncytial virus (RSV), …).
T3 construct: also called RSV-F wt; RSV-F protein
The assay can be described thus: method not said in the sentence; RSV-A as printed.

A further assay addresses DS-Cav1 RSV F (respiratory syncytial virus (RSV); …, UniProt P13843 26-513). The assay can be described thus: ELISA on RSV-F Ds-Cav1, 1 ug/ml.
The target of assay [14] is T3, RSV fusion glycoprotein (RSV-F), …. The assay can be described thus: ELISA-type titration, OD 405 nm, on Pre-F.
Assay [15] has as its target post-fusion RSV F protein (respiratory syncytial virus (RSV), …). Nature of the assay: ELISA-type titration, OD 405 nm, on Post-F.
Assay [16] has as its target RSV A fusion glycoprotein (F), virus of the neutralisation assays of Tables 54 and 57 (RSV A). The assay can be described thus: cell-based or functional assay.
The target of assay [17] is RSV-B B18537/62 F protein (RSV B, strain B18537/62, UniProt P13843 26-574). Nature of the assay: cell-based or functional assay.
A further assay has as its target RSV-B B9320 F protein (RSV B, strain B9320). The assay can be described thus: cell-based or functional assay.
Assay [18] has as its target RSV-long strain fusion glycoprotein (F) (RSV, long strain, UniProt P12568 26-574). Nature of the assay: cell-based or functional assay.
The next assay concerns the target T4, RSV F B, B Ref (RSV B).
T4 construct: whole, on cells
Nature of the assay: FACS, % binding to RSV F B variants.

Another assay deals with T5, RSV F B K68N-N201S (RSV B).
T5 construct: whole, on cells
Nature of the assay: FACS, % binding to RSV F B variants.

A further assay addresses T6, RSV F B K68N-N208S (RSV B).
T6 construct: whole, on cells
Nature of the assay: FACS, % binding to RSV F B variants.

Another assay addresses T7, RSV F B N201S (RSV B).
T7 construct: whole, on cells
Nature of the assay: FACS, % binding to RSV F B variants.

The target in the next assay is T8, RSV F B N208D (RSV B).
T8 construct: whole, on cells
Nature of the assay: FACS, % binding to RSV F B variants.

The target in another assay is T9, RSV F B N208S (RSV B).
T9 construct: whole, on cells; also called mutant N208S
The assay can be described thus: FACS, % binding to RSV F B variants.

Another assay addresses T10, RSV F B S443P (RSV B).
T10 construct: whole, on cells; also called mutant S443P
The assay can be described thus: FACS, % binding to RSV F B variants.

The target in assay [19] is T11, MPV F D280N mutant expressed on Expi293F transfected cells (metapneumovirus (MPV), strain ).
T11 construct: whole, on cells; also called MPV D280N F; D280N F
Nature of the assay: FACS on Expi293F cells transfected with MPV-F D280N; mouse serum taken 2 h after injection.

Assay [20] deals with T11, MPV F D280N mutant expressed on …. Nature of the assay: FACS on Expi293F cells transfected with MPV-F D280N; mouse serum taken 56 d after injection.

We go through seven molecules from US20260028391A1 (HUMABS BIOMED, published 2026).

Positions count from the first letter of the chain named. Names and notes keep the numbering of the source.

B1: MPK65-v2-rIgG1-LS (antibody, V domains shown)
VH: QVPLVQSGAEVKKPGESLKISCKGSGYSFINYWIGWVRQMPGKGLEWMGVIYPFDSDTKYSPSFQGHVTISADKSSNTAYVQWSSLKASDTAMYYCARFTFGIAVVTDDVSGEGQAFEIWGQGTMVTVSS
VL: EIVMMQSPATLSVSPGERATLSCRASQSVAGNLAWYQQRPGQAPRLLIYGASTRATGVPARFSGSGSETEFTLTISSLQSEDFAVYYCHQYSNWPQAFGQGTRLDIK
notes: Recombinant human IgG1 with M428L/N434S (LS)
As for B1, the “IC50, virus neutralization” value in [1] came to 1.7 ng/mL; in [2], 0.741 ng/mL; in assay [3], 0.5 ng/mL; in assay [4], 0.4 ng/mL; in assay [5], 0.955 ng/mL; in [6], 0.607 ng/mL. Moreover, the “IC50, virus neutralization” value in [7] was found to be 0.59 ng/mL; in assay [8] it was 0.56 ng/mL; in assay [9], 0.17 ng/mL; in assay [10], 0.95 ng/mL; in [11] it was 0.74 ng/mL; in [12], 0.47 ng/mL. In the assay with RSV-B F, this molecule had a Kd of 0.404 nM.

B2: MPK201-rIgG1-LS (antibody, V domains shown)
VH: EVQLVQSGAEVKKPGESLKISCQGSGYSFINYWIGWVRQKPGKGLEWMGIIYPFDSETKYSPSFQGHVTFSADKSINTAYVQWSSLRASDTAMYYCARFTFGLAVTTADVSGEGQAFEIWGQGTMVTVSS
VL: B1 VL with I48V, T56S, Q90H, N93D
notes: as for B1
As to B2, the “IC50, virus neutralization” value in [5] was 2.83 ng/mL; in assay [6], 1.49 ng/mL; in [7], 1.77 ng/mL; in assay [8], 2.33 ng/mL; in assay [9] it was 3.01 ng/mL; in assay [10] it was 1.53 ng/mL. Also, the “IC50, virus neutralization” value in assay [11] came to 1.26 ng/mL; in assay [12], 1.23 ng/mL. Further, the Kd with RSV-A F and in the assay with RSV-B F was 0.001 nM each time.

B3: MPK65-v2 (antibody, human IgG1, V domains shown)
VH: B1 VH
VL: B1 VL
notes: also called MPK65-v2-rIgG1-LS
Turning to B3, in assay [13], the Kd is less than 0.1 nM.

B4: MPH12 (antibody, V domains shown)
VH: QVQLVESGGGLVKPGGSLRLSCVASGFTFSGFYMKWIRQAPGKGLEWVSSISASGSYTNYADSVEGRFTVSRDNAKNSLFLLMSSLRAEDTAVYYCARGDSYCGASACHGEFFHKWGQGTLVTVSS
VL: QSVLTQPPSVSGAPGQRVTISCTGSDSNIGADFDVHWYQQLPGTAPKLLIYGNINRPSGVPDRFSGSRSGTSAFLAITRLQAEDEADYYCQSYDRSLHYVFGAGTKVTVL
notes: also called MPH12-rIgG1; MPH12-rIgG1-LS
On to B4, for which the “EC50 (read off the curve)” value with DS-Cav1 RSV F is approximately 2 ng/mL; in assay [14], approximately 10 ng/mL; in [15], approximately 30 ng/mL.

B5: MPK190-v1.3-rIgG1m17,1-LS (antibody, V domains shown)
VH: QVQLVESGGGLVKPGGSLTLSCAASGFSISGYGMNWVRQAPGRGLEWVASISASSTYIYYADSMKGRFTISRDNGKTSLYLQMKSLRAEDTAVYYCARAPIEPPYFDLWGRGTLVTVSS
VL: QSVLTQPPSVSGAPGQRVTISCTGSSSNIGAGYDVHWYQHLPGKAPKVLIYGNTNRPSVVPDRFSGSNSGASASLAISGLQAEDEADYFCQSYDRRLSGPIFGGGTKLTVLG
For the molecule B5, in assay [16], the “IC50, neutralization of RSVA” value is 15.3 ng/mL. In addition, the entries for the “EC50, virus neutralization (Fab testing)” value (in assay [17]; with RSV-B B9320 F protein; in assay [18]) were 0.0247 nM, 0.017 nM and 0.105 nM, respectively. The “% binding” value amounted to 72.1% with RSV F B, B Ref; 63.3% with RSV F B K68N-N201S; 61.5% with RSV F B K68N-N208S; 63.1% with RSV F B N201S; 60.5% with RSV F B N208D; 63.4% in the assay with RSV F B N208S. The “% binding” value in the assay with RSV F B S443P was determined as 66.7%.

B6: MPK190 (antibody, V domains shown)
VH: B5 VH with Q1E
VL: QSVLTQPPSVSGAPGQRVTISCTGSNSNIGAGYDVHWYQHLPGKAPKVLIYGNNNRPSVVPDRFSGSNSGASASLAISGLQAEDEADYFCQSYDRRLSGPIFGGGTKLTVL
notes: Tested as MPK190-rIgG1-LS (IgG1 with M428L/N434S); also called MPK190-rIgG1-LS; MPK190-rIgG1-LS(4B6)
B6: the concentration for a half-maximal effect (EC50) in assay [19] was determined as 62 ng/mL; in assay [20], 84 ng/mL.

B7: MPK176-rIgG1-LS (antibody, V domains shown)
VH: QVQLVQSGAEVKKPGASVRVSCKASGYTLTAYGISWVRQAPGQGLEWMGWISPKHGNTHYAQRFQGRVTMTTDTSTSTAYMELRSLRPDDTAVYFCAREGVDIMAVPWYFDYWGQGTLVAVSS
VL: SYELTQPPSVSVAPGQTARISCGGNNIGSKSVHWYQQKPGQAPVVVVYDDSDRPSGIPERFSGSNSGNTATLTISGVEAGDEADYFCQVWDSATDHWVFGGGTKLTVL
notes: as for B1
With B7, the “IC50, virus neutralization” value was 4.15 ng/mL in assay [5]; 2.19 ng/mL in [6]; 2.12 ng/mL in assay [7]; 2.08 ng/mL in [8]; 2.45 ng/mL in [9]; 2.87 ng/mL in assay [10]. For the same molecule, the “IC50, virus neutralization” value in assay [11] is 2.3 ng/mL; in assay [12], 1.06 ng/mL. For the same molecule, the results for the dissociation constant (Kd) in the assay with RSV-A F and with RSV-B F were 0.0591 nM and 0.001 nM, respectively.
